Data on two molecules can be found in patent publication US20140087995A1 (published 2014).

Assay [1] deals with T1, rat calcitonin receptor (rat, UniProt P32214 25-516).
T1 construct: whole, on cells; Membranes prepared from transiently transfected BHK tk'ts 13 cells; also called rCTR; rat calcitonin (a) receptor
T1 sequence (looked up): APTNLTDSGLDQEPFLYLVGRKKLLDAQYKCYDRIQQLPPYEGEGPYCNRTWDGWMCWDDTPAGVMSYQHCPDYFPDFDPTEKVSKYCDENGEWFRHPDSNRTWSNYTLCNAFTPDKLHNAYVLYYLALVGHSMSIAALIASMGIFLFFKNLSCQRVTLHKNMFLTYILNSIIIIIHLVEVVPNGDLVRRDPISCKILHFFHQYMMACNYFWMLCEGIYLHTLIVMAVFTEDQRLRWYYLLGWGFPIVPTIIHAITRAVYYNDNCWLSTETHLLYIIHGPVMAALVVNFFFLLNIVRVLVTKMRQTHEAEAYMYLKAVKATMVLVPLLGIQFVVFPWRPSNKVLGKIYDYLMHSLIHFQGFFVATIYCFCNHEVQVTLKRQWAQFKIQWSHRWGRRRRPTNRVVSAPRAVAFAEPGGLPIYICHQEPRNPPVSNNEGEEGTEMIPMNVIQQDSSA
Nature of the assay: SPA competition vs 125I-calcitonin, membranes (Assay VIII).

The target in assay [2] is T2, human calcitonin receptor (human, UniProt P30988 25-474).
T2 construct: whole, on cells; Membranes from stably transfected BHK cells; also called hCTR; hCT
T2 sequence (looked up): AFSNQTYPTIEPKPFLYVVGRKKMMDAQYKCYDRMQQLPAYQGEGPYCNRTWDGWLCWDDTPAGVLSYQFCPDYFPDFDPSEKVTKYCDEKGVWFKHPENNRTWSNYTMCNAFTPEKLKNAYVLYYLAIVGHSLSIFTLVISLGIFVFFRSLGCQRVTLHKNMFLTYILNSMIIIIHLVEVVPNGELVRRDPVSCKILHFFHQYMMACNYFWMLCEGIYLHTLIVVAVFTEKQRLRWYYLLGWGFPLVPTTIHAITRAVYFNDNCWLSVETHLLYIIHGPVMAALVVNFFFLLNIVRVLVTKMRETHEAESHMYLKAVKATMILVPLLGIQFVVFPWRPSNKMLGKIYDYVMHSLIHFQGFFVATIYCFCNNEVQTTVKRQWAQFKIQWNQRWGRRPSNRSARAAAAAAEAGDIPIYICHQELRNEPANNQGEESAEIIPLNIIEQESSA
Nature of the assay: ratio of IC50 on human calcitonin receptor to IC50 on human amylin receptor. The procedure:
The resulting pellet was resuspended, homogenized and centrifuged (20.000 rpm, 15 min) in a buffer containing 20 mM Na-HEPES and 0.1 mM EDTA (pH 7.4, buffer 2). The resulting pellet was resuspended in buffer 2 and protein concentration was measured (BCA protein Assay, Pierce). The homogenate was kept cold during the whole procedure. The membranes were kept at −80° C. until use. The assay was performed in a 384 well Optiplate (PerkinElmer) in a total volume of 40 ul. Membranes were mixed with SPA beads. Final concentration of membranes 35 ng/μL final and SPA beads was 0.05 mg/well. Test-compounds were dissolved in DMSO and further diluted in assay buffer (50 mM Hepes, pH 7.4, 1 mM CaCl2, 5 mM MgCl₂, 0.1% OA and 0.02% Tween20). […] The final mixture was incubated with shaking at 400 rpm for 120 min at 25° C. prior to centrifugation (1500 rpm, 10 min). Samples were analyzed on TopCounter™ (Packard). The IC₅₀ was calculated using (one site binding competition analysis) GraphPad Prism5 as a measure of receptor affinity.
Membranes were prepared in the following way; the cells were rinsed with PBS and incubated with Versene for approximately 5 min before harvesting. The cells were flushed with PBS and the cell-suspension was centrifuged for 5 min at 1000 rpm. Cells were homogenized (Ultrathurrax) in a buffer containing 20 mM Na-HEPES and 10 mM EDTA (pH 7.4) and centrifuged at 20.000 rpm for 15 min. The resulting pellet was resuspended, homogenized and centrifuged (20.000 rpm, 15 min) in a buffer containing 20 mM Na-HEPES and 0.1 mM EDTA (pH 7.4, buffer 2). The resulting pellet was resuspended in buffer 2 and protein concentration was measured (BCA protein Assay, Pierce). The homogenate was kept cold during the whole procedure. The membranes were kept at −80° C. until use. Assay was performed in a 384 well Optiplate (PerkinElmer) in a total volume of 40 ul. Membranes were mixed with SPA beads.

Assay [3] deals with T1, rat calcitonin receptor. Nature of the assay: ratio of IC50 on rat calcitonin receptor to IC50 on rat amylin receptor.
In assay [4] the target is T3, rat amylin receptor (rat calcitonin receptor + rat RAMP 3) (rat, UniProt P32214 25-516; Q9JJ73 23-147).
T3 construct: whole, on cells; Membranes prepared from transiently transfected BHK tk'ts 13 cells; also called rAmylin-R; rat amylin 3(a) receptor
T3 sequence (looked up) 1: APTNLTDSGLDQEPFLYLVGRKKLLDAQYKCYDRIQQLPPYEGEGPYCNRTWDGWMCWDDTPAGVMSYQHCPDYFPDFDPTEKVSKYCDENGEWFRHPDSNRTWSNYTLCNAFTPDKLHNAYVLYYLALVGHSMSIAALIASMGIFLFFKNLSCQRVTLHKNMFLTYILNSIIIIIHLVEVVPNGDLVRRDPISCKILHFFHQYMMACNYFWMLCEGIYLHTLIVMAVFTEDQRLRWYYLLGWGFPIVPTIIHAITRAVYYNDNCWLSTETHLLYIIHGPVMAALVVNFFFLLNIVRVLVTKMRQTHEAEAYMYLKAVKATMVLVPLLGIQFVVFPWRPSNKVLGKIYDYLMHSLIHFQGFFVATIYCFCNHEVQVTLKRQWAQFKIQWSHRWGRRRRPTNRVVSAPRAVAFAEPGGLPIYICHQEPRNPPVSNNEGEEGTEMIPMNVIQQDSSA
T3 sequence (looked up) 2: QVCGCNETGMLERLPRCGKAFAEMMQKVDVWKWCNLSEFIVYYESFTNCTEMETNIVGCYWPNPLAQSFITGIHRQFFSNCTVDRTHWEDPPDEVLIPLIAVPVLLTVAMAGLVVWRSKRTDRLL
Nature of the assay: SPA competition vs 125I-rat amylin, membranes (Assay VI).

Numbered stars: 1 amine (or outer) side, 2 acyl side, 3 side chain; on linkers, the order of the positions; unused ones are H or OH. Bridge positions count the residues as written; N and C are the ends. Side chains are listed from the residue outwards. Ends that are not written are not given here. * marks the point of attachment. C18 diacid = O=C(O)CCCCCCCCCCCCCCCCC(=O)*; C16 diacid = O=C(O)CCCCCCCCCCCCCCC(=O)*; γGlu = O=C(O)[C@H](CCC(=O)[*:2])N[*:1]

B1: N^ε1-[(4S)-4-carboxy-4-(15-carboxypentadecanoylamino)butanoyl]-[Arg17,Pro21,Pro27,His34]-h-amylin (peptide)
peptide: K([γGlu-C16 diacid])CNTATCATQRLANFLRHSSPNFGAIPSSTNVGHNTY-NH2
modifications: disulfide 2-7; N-terminus assumed
SMILES: CC[C@H](C)[C@H](NC(=O)[C@H](C)NC(=O)CNC(=O)[C@H](Cc1ccccc1)NC(=O)[C@H](CC(N)=O)NC(=O)[C@@H]1CCCN1C(=O)[C@H](CO)NC(=O)[C@H](CO)NC(=O)[C@H](Cc1c[nH]cn1)NC(=O)[C@H](CCCNC(=N)N)NC(=O)[C@H](CC(C)C)NC(=O)[C@H](Cc1ccccc1)NC(=O)[C@H](CC(N)=O)NC(=O)[C@H](C)NC(=O)[C@H](CC(C)C)NC(=O)[C@H](CCCNC(=N)N)NC(=O)[C@H](CCC(N)=O)NC(=O)[C@@H](NC(=O)[C@H](C)NC(=O)[C@@H]1CSSC[C@H](NC(=O)[C@@H](N)CCCCNC(=O)CC[C@H](NC(=O)CCCCCCCCCCCCCCC(=O)O)C(=O)O)C(=O)N[C@@H](CC(N)=O)C(=O)N[C@@H]([C@@H](C)O)C(=O)N[C@@H](C)C(=O)N[C@@H]([C@@H](C)O)C(=O)N1)[C@@H](C)O)C(=O)N1CCC[C@H]1C(=O)N[C@@H](CO)C(=O)N[C@@H](CO)C(=O)N[C@H](C(=O)N[C@@H](CC(N)=O)C(=O)N[C@H](C(=O)NCC(=O)N[C@@H](Cc1c[nH]cn1)C(=O)N[C@@H](CC(N)=O)C(=O)N[C@H](C(=O)N[C@@H](Cc1ccc(O)cc1)C(N)=O)[C@@H](C)O)C(C)C)[C@@H](C)O
As usually defined, the IC50 is the concentration needed to halve the response being measured. As to B1, the IC50 stood at 404 nM in assay [1] and 1.24 nM in assay [4]. In addition, the “Ratio hCT/hAmylin binding” value in assay [2] was determined as 18.5. The “Ratio rCT/rAmylin binding” value in assay [3] is 327.

B2: N^ε1-[(4S)-4-carboxy-4-(17-carboxyheptadecanoylamino)butanoyl]-[Arg17,Pro21,Pro27,His34]-h-amylin (peptide)
peptide: K([γGlu-C18 diacid])CNTATCATQRLANFLRHSSPNFGAIPSSTNVGHNTY-NH2
modifications: disulfide 2-7; N-terminus assumed
SMILES: CC[C@H](C)[C@H](NC(=O)[C@H](C)NC(=O)CNC(=O)[C@H](Cc1ccccc1)NC(=O)[C@H](CC(N)=O)NC(=O)[C@@H]1CCCN1C(=O)[C@H](CO)NC(=O)[C@H](CO)NC(=O)[C@H](Cc1c[nH]cn1)NC(=O)[C@H](CCCNC(=N)N)NC(=O)[C@H](CC(C)C)NC(=O)[C@H](Cc1ccccc1)NC(=O)[C@H](CC(N)=O)NC(=O)[C@H](C)NC(=O)[C@H](CC(C)C)NC(=O)[C@H](CCCNC(=N)N)NC(=O)[C@H](CCC(N)=O)NC(=O)[C@@H](NC(=O)[C@H](C)NC(=O)[C@@H]1CSSC[C@H](NC(=O)[C@@H](N)CCCCNC(=O)CC[C@H](NC(=O)CCCCCCCCCCCCCCCCC(=O)O)C(=O)O)C(=O)N[C@@H](CC(N)=O)C(=O)N[C@@H]([C@@H](C)O)C(=O)N[C@@H](C)C(=O)N[C@@H]([C@@H](C)O)C(=O)N1)[C@@H](C)O)C(=O)N1CCC[C@H]1C(=O)N[C@@H](CO)C(=O)N[C@@H](CO)C(=O)N[C@H](C(=O)N[C@@H](CC(N)=O)C(=O)N[C@H](C(=O)NCC(=O)N[C@@H](Cc1c[nH]cn1)C(=O)N[C@@H](CC(N)=O)C(=O)N[C@H](C(=O)N[C@@H](Cc1ccc(O)cc1)C(N)=O)[C@@H](C)O)C(C)C)[C@@H](C)O
On to B2, for which the IC50 in assay [1] came out at 47 nM; in assay [4] it was 1.17 nM. Also, the “Ratio hCT/hAmylin binding” value in assay [2] worked out at 59.4. In addition, the “Ratio rCT/rAmylin binding” value in assay [3] is 40.3.
